# Values of other authors as cited in publication PMC10653114.
# Columns and labels:
# Glu13 = Glu13 (UniProt position 13, KTAFQEALDAA); conditions: 298 K; Conc. 0.00 (unit not given; Na+/Cl–)
# Asp64 = Asp64 (UniProt position 64, VDDCQDVASEC); conditions: 298 K; Conc. 0.00 (unit not given; Na+/Cl–)
# Glu56 = Glu56 (UniProt position 56, NVIFLEVDVDD); conditions: 298 K; Conc. 0.00 (unit not given; Na+/Cl–)
# Asp20 = Asp20 (UniProt position 20, LDAAGDKLVVV); conditions: 298 K; Conc. 0.00 (unit not given; Na+/Cl–)
# Glu6 [1] = target: Glu6 (UniProt position 6, MVKQIESKTAF); conditions: 298 K; Conc. 0.00 (unit not given; Na+/Cl–)
# Asp16 = Asp16 (UniProt position 16, FQEALDAAGDK); conditions: 298 K; Conc. 0.00 (unit not given; Na+/Cl–)
# Asp26 = Asp26 (UniProt position 26, KLVVVDFSATW); conditions: 298 K; Conc. 0.00 (unit not given; Na+/Cl–)
# Glu103 = Glu103 (UniProt position 103, EATINELV---); conditions: 298 K; Conc. 0.00 (unit not given; Na+/Cl–)
# Glu70 = Glu70 (UniProt position 70, VASECEVKCMP); conditions: 298 K; Conc. 0.00 (unit not given; Na+/Cl–)
# Glu98 = Glu98 (UniProt position 98, NKEKLEATINE); conditions: 298 K; Conc. 0.00 (unit not given; Na+/Cl–)
# Glu88 = Glu88 (UniProt position 88, GQKVGEFSGAN); conditions: 298 K; Conc. 0.00 (unit not given; Na+/Cl–)
# Glu47 = Glu47 (UniProt position 47, FHSLSEKYSNV); conditions: 298 K; Conc. 0.00 (unit not given; Na+/Cl–)
# Glu68 = Glu68 (UniProt position 68, QDVASECEVKC); conditions: 298 K; Conc. 0.00 (unit not given; Na+/Cl–)
# Glu95 = Glu95 (UniProt position 95, SGANKEKLEAT); conditions: 298 K; Conc. 0.00 (unit not given; Na+/Cl–)
# Asp94 = Asp94 (UniProt position 94, GWKTADKKPVK); assay: NMR (per the title of cited ref 95); conditions: 300 K; Conc. 0.10 (unit not given; Na+/Cl–)
# Glu119 = Glu119 (UniProt position 119, HQIKWEWVKGH); assay: NMR (per the title of cited ref 95); conditions: 300 K; Conc. 0.10 (unit not given; Na+/Cl–)
# Glu6 [2] = target: Glu6 (UniProt position 6, MLKQVEIFTDG); assay: NMR (per the title of cited ref 95); conditions: 300 K; Conc. 0.10 (unit not given; Na+/Cl–)
# Glu64 = Glu64 (UniProt position 64, LKEHCEVILST); assay: NMR (per the title of cited ref 95); conditions: 300 K; Conc. 0.10 (unit not given; Na+/Cl–)
# Asp10 = Asp10 (UniProt position 10, VEIFTDGSCLG); assay: NMR (per the title of cited ref 95); conditions: 300 K; Conc. 0.10 (unit not given; Na+/Cl–)
# Glu147 = Glu147 (UniProt position 147, MNPTLEDTGYQ); assay: NMR (per the title of cited ref 95); conditions: 300 K; Conc. 0.10 (unit not given; Na+/Cl–)
# Glu135 [3] = target: Glu135 (UniProt position 135, NERCDELARAA); assay: NMR (per the title of cited ref 95); conditions: 300 K; Conc. 0.10 (unit not given; Na+/Cl–)
# Glu32 = Glu32 (UniProt position 32, RYRGREKTFSA); assay: NMR (per the title of cited ref 95); conditions: 300 K; Conc. 0.10 (unit not given; Na+/Cl–)
# Glu154 = Glu154 (UniProt position 154, TGYQVEV----); assay: NMR (per the title of cited ref 95); conditions: 300 K; Conc. 0.10 (unit not given; Na+/Cl–)
# Glu48 = Glu48 (UniProt position 48, TNNRMELMAAI); assay: NMR (per the title of cited ref 95); conditions: 300 K; Conc. 0.10 (unit not given; Na+/Cl–)
# Asp134 = Asp134 (UniProt position 134, ENERCDELARA); assay: NMR (per the title of cited ref 95); conditions: 300 K; Conc. 0.10 (unit not given; Na+/Cl–)
# Glu61 = Glu61 (UniProt position 61, LEALKEHCEVI); assay: NMR (per the title of cited ref 95); conditions: 300 K; Conc. 0.10 (unit not given; Na+/Cl–)
# Glu129 [4] = target: Glu129 (UniProt position 129, HAGHPENERCD); assay: NMR (per the title of cited ref 95); conditions: 300 K; Conc. 0.10 (unit not given; Na+/Cl–)
# Glu131 = Glu131 (UniProt position 131, GHPENERCDEL); assay: NMR (per the title of cited ref 95); conditions: 300 K; Conc. 0.10 (unit not given; Na+/Cl–)
# Glu57 [5] = target: Glu57 (UniProt position 57, AIVALEALKEH); assay: NMR (per the title of cited ref 95); conditions: 300 K; Conc. 0.10 (unit not given; Na+/Cl–)
# Asp70 = Asp70 (UniProt position 70, VILSTDSQYVR); assay: NMR (per the title of cited ref 95); conditions: 300 K; Conc. 0.10 (unit not given; Na+/Cl–)
# Asp108 = Asp108 (UniProt position 108, LWQRLDAALGQ); assay: NMR (per the title of cited ref 95); conditions: 300 K; Conc. 0.10 (unit not given; Na+/Cl–)
# Glu57 [6] = target: Glu57 (UniProt position 139, EKYGPEASAFT); conditions: 298 K; Conc. 0.10 (unit not given; K+/Cl–)
# Glu43 = Glu43 (UniProt position 125, LVDTPETKHPK); conditions: 298 K; Conc. 0.10 (unit not given; K+/Cl–)
# Asp77 = Asp77 (UniProt position 159, IEVEFDKGQRT); conditions: 298 K; Conc. 0.10 (unit not given; K+/Cl–)
# Glu142 = Glu142 (UniProt position 224, LNIWSEDNADS); conditions: 298 K; Conc. 0.10 (unit not given; K+/Cl–)
# Glu52 = Glu52 (UniProt position 134, PKKFNEKYGPE); conditions: 298 K; Conc. 0.10 (unit not given; K+/Cl–)
# Glu73 = Glu73 (UniProt position 155, NAKKIEVEFDK); conditions: 298 K; Conc. 0.10 (unit not given; K+/Cl–)
# Asp21 = Asp21 (UniProt position 103, KAIDGDTVKLM); conditions: 298 K; Conc. 0.10 (unit not given; K+/Cl–)
# Glu122 = Glu122 (UniProt position 204, GNNTHEQLLRK); conditions: 298 K; Conc. 0.10 (unit not given; K+/Cl–)
# Asp95 = Asp95 (UniProt position 177, AYIYADGKMVN); conditions: 298 K; Conc. 0.10 (unit not given; K+/Cl–)
# Asp40 = Asp40 (UniProt position 122, RLLLVDTPETK); conditions: 298 K; Conc. 0.10 (unit not given; K+/Cl–)
# Asp83 = Asp83 (UniProt position 165, KGQRTDKYGRG); conditions: 298 K; Conc. 0.10 (unit not given; K+/Cl–)
# Glu67 = Glu67 (UniProt position 149, TKKMVENAKKI); conditions: 298 K; Conc. 0.10 (unit not given; K+/Cl–)
# Glu129 [7] = target: Glu129 (UniProt position 211, LLRKAEAQAKK); conditions: 298 K; Conc. 0.10 (unit not given; K+/Cl–)
# Glu10 = Glu10 (UniProt position 92, KKLHKEPATLI); conditions: 298 K; Conc. 0.10 (unit not given; K+/Cl–)
# Glu135 [8] = target: Glu135 (UniProt position 217, AQAKKEKLNIW); conditions: 298 K; Conc. 0.10 (unit not given; K+/Cl–)
# Glu75 = Glu75 (UniProt position 157, KKIEVEFDKGQ); conditions: 298 K; Conc. 0.10 (unit not given; K+/Cl–)
# Glu101 = Glu101 (UniProt position 183, GKMVNEALVRQ); conditions: 298 K; Conc. 0.10 (unit not given; K+/Cl–)
# Asp143 = Asp143 (UniProt position 225, NIWSEDNADSG); conditions: 298 K; Conc. 0.10 (unit not given; K+/Cl–)
# Asp146 = Asp146 (UniProt position 228, SEDNADSGQ--); conditions: 298 K; Conc. 0.10 (unit not given; K+/Cl–)
# Asp19 = Asp19 (UniProt position 101, LIKAIDGDTVK); conditions: 298 K; Conc. 0.10 (unit not given; K+/Cl–)
# Lys7 = Lys7 (UniProt position 11, SPEELKGIFEK); conditions: 300 K; Conc. 0.00 (unit not given; Na+/Cl–); apo (Ca2+-free), inferred from the apo structure 1CLB used
# Lys72 = Lys72 (UniProt position 76, QVLVKKISQ--); conditions: 300 K; Conc. 0.00 (unit not given; Na+/Cl–); apo (Ca2+-free), inferred from the apo structure 1CLB used
# Lys12 = Lys12 (UniProt position 16, KGIFEKYAAKE); conditions: 300 K; Conc. 0.00 (unit not given; Na+/Cl–); apo (Ca2+-free), inferred from the apo structure 1CLB used
# Lys71 = Lys71 (UniProt position 75, FQVLVKKISQ-); conditions: 300 K; Conc. 0.00 (unit not given; Na+/Cl–); apo (Ca2+-free), inferred from the apo structure 1CLB used
# Lys55 = Lys55 (UniProt position 59, FEELDKNGDGE); conditions: 300 K; Conc. 0.00 (unit not given; Na+/Cl–); apo (Ca2+-free), inferred from the apo structure 1CLB used
# Lys25 = Lys25 (UniProt position 29, PNQLSKEELKL); conditions: 300 K; Conc. 0.00 (unit not given; Na+/Cl–); apo (Ca2+-free), inferred from the apo structure 1CLB used
# Lys16 = Lys16 (UniProt position 20, EKYAAKEGDPN); conditions: 300 K; Conc. 0.00 (unit not given; Na+/Cl–); apo (Ca2+-free), inferred from the apo structure 1CLB used
# Lys41 = Lys41 (UniProt position 45, FPSLLKGPSTL); conditions: 300 K; Conc. 0.00 (unit not given; Na+/Cl–); apo (Ca2+-free), inferred from the apo structure 1CLB used
# Lys29 = Lys29 (UniProt position 33, SKEELKLLLQT); conditions: 300 K; Conc. 0.00 (unit not given; Na+/Cl–); apo (Ca2+-free), inferred from the apo structure 1CLB used
substance,measurement,setting,value
"Thioredoxin (human, reduced) (Homo sapiens)",pKa,Glu13,4.4 ± 0.07
same,pKa,Asp64,3.2 ± 0.06
same,pKa,Glu56,3.1 ± 0.10
same,pKa,Asp20,3.8 ± 0.05
same,pKa,Glu6 [1],4.8 ± 0.08
same,pKa,Asp16,4.1 ± 0.10
same,pKa,Asp26,9.9 ± 0.10
same,pKa,Glu103,4.4 ± 0.07
same,pKa,Glu70,4.6 ± 0.08
same,pKa,Glu98,3.9 ± 0.02
same,pKa,Glu88,3.7 ± 0.08
same,pKa,Glu47,4.1 ± 0.10
same,pKa,Glu68,4.9 ± 0.07
same,pKa,Glu95,4.1 ± 0.02
Ribonuclease HI (Escherichia coli),pKa,Asp94,3.2
same,pKa,Glu119,4.1
same,pKa,Glu6 [2],4.5
same,pKa,Glu64,4.4
same,pKa,Asp10,6.1
same,pKa,Glu147,4.2
same,pKa,Glu135 [3],4.3
same,pKa,Glu32,3.6
same,pKa,Glu154,4.4
same,pKa,Glu48,4.4
same,pKa,Asp134,4.1
same,pKa,Glu61,3.9
same,pKa,Glu129 [4],3.6
same,pKa,Glu131,4.3
same,pKa,Glu57 [5],3.2
same,pKa,Asp70,2.6
same,pKa,Asp108,3.2
"Staphylococcal nuclease, Delta+PHS variant (Staphylococcus aureus; G50F;V51N;P117G;H124L;S128A;del44-49)",pKa,Glu57 [6],3.49 ± 0.09
same,pKa,Glu43,4.32 ± 0.04
same,pKa,Asp77,<2.2
same,pKa,Glu142,4.49 ± 0.04
same,pKa,Glu52,3.93 ± 0.08
same,pKa,Glu73,3.31 ± 0.01
same,pKa,Asp21,6.53 ± 0.02
same,pKa,Glu122,3.89 ± 0.09
same,pKa,Asp95,2.16 ± 0.07
same,pKa,Asp40,3.87 ± 0.09
same,pKa,Asp83,<2.2
same,pKa,Glu67,3.76 ± 0.07
same,pKa,Glu129 [7],3.75 ± 0.09
same,pKa,Glu10,2.82 ± 0.09
same,pKa,Glu135 [8],3.76 ± 0.08
same,pKa,Glu75,3.26 ± 0.05
same,pKa,Glu101,3.81 ± 0.1
same,pKa,Asp143,3.8 ± 0.1
same,pKa,Asp146,3.86 ± 0.05
same,pKa,Asp19,2.21 ± 0.07
Calbindin D9k (apo) (Bos taurus),pKa,Lys7,12.53
same,pKa,Lys72,11.95
same,pKa,Lys12,12.02
same,pKa,Lys71,11.22
same,pKa,Lys55,12.95
same,pKa,Lys25,13.21
same,pKa,Lys16,11.90
same,pKa,Lys41,11.02
same,pKa,Lys29,11.81
